The experiment has as its target T1, His6-tagged Lhs1p (wild type) (S. cerevisiae, UniProt P36016 21-881).
T1 sequence: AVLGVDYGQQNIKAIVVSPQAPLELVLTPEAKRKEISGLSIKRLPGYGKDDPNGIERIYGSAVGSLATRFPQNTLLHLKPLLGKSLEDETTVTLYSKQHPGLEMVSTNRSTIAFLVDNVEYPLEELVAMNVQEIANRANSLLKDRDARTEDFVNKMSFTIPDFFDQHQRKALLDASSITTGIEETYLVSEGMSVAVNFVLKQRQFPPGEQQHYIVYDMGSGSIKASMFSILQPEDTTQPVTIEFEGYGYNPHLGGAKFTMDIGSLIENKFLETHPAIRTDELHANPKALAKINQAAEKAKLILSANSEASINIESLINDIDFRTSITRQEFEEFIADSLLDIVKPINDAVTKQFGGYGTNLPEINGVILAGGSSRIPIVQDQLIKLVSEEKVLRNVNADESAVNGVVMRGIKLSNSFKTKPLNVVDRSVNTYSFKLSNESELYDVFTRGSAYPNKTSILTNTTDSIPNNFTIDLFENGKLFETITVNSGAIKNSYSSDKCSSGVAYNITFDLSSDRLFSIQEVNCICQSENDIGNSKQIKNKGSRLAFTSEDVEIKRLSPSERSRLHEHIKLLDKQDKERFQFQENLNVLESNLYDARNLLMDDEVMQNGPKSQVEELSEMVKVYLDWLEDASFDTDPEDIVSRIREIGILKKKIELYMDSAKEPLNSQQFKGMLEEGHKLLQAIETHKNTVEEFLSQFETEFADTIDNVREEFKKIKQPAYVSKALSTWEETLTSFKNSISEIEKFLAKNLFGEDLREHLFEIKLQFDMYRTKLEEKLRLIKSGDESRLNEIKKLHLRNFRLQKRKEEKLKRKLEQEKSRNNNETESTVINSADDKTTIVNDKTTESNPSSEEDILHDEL
The experiment can be described thus: pull-down.

B1: GST-tagged Kar2p (wild type) (natural protein)
chain: not shown
For the molecule B1, the binding result is recorded as “binds”.

B2: GST-tagged Kar2p(G246D) (natural protein)
chain: not shown
As for B2, the binding result is “binds”.

For the origin of these results see PMC2797226 (The Journal of Biological Chemistry, 2009).
